In patent publication US6348327:
Positions count from the first letter of the chain named.

B1: murine prohormone convertase 2 (protein)
chain: GYRDINEIDINMNDPLFTKQWYLFNTGQADGTPGLDLNVAEAWELGYTGKGVTIGIMDDGIDYLHPDLAYNYNADASYDFSSNDPYPYPRYTDDWFNSHGTRCAGEVSAAASNNICGVGVAYNSKVAGIRMLDQPFMTDIIEASSISHMPQLIDIYSASWGPTDNGKTVDGPRELTLQAMADGVNKGRGGKGSIYVWASGDGGSYDDCNCDGYASSMWTISINSAINDGRTALYDESCSSTLASTFSNGRKRNPEAGVATTDLYGNCTLRHSGTSAAAPEAAGVFALALEANLDLTWRDMQHLTVLTSKRNQLHDEVHQWRRNGVGLEFNHLFGYGVLDAGAMVKMAKDWKTVPERFHCVGGSVQNPEKIPPTGKLVLTLKTNACEGKENFVRYLEHVQAVITVNATRRGDLNINMTSPMGTKSILLSRRPRDDDSKVGFDKWPFMTTHTWGEDARGTWTLELGFVGSAPQKGLLKEWTLMLHGTQSAPYIDQVVRDYQSKLAMSKKQELEEELDEAVERSLQSILRKN
B2: murine prohormone convertase 1 (protein)
chain: SVQKDSALDLFNDPMWNQQWYLQDTRMTAALPKLDLHVIPVWEKGITGKGVVITVLDDGLEWNHTDIYANYDPEASYDFNDNDHDPFPRYDLTNENKHGTRCAGEIAMQANNHKCGVGVAYNSKVGGIRMLDGIVTDAIEASSIGFNPGHVDIYSASWGPNDDGKTVEGPGRLAQKAFEYGVKQGRQGKGSIFVWASGNGGRQGDNCDCDGYTDSIYTISISSASQQGLSPWYAEKCSSTLATSYSSGDYTDQRITSADLHNDCTETHTGTSASAPLAAGIFALALEANPNLTWRDMQHLVVWTSEYDPLASNPGWKKNGAGLMVNSRFGFGLLNAKALVDLADPRTWRNVPEKKECVVKDNNFEPRALKANGEVIVEIPTRACEGQENAIKSLEHVQFEATIEYSRRGDLHVTLTSAVGTSTVLLAERERDTSPNGFKNWDFMSVHTWGENPVGTWTLKITDMSGRMQNEGRIVNWKLILHGTSSQPEHMKQPRVYTSYNTVQNDRRGVEKMVNVVEKRPTQKSLNGNLLVPKNSSSSNVEGRRDEQVQGTPSKAMLRLLQSAFSKNALSKQSPKKSPSAKLSIPYESFYEALEKLNKPSKLEGSEDSLYSDYVDVFYNTKPYKHRDDRLLQALMDILNEEN

Assays:
[1] = target: T1, prorelaxin mutant Rx 4.3, P04090
T1 chain: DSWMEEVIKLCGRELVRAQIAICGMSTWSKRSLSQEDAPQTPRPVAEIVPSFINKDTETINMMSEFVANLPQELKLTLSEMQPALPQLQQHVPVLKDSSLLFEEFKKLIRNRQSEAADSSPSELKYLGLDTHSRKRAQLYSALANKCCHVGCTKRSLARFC

[2] = target: T2, prorelaxin mutant Rx8.6, P04090
T2 chain: T1 chain with R31A, R136K, A137R

[3] = target: T3, prorelaxin mutant Rx7.2, P04090
T3 chain: T1 chain with K30A, R136K, A137R

[4] = target: T4, prorelaxin mutant Rx 3.2, P04090
T4 chain: T1 chain with R136A, A137R

[5] = target: T5, prorelaxin mutant Rx 2.4, P04090
T5 chain: T1 chain with K135A, R136K, A137R

[6] = target: T6, human H2 prorelaxin (wild-type), P04090
T6 chain: T1 chain with R136K, A137R

[7] = target: T7, prorelaxin mutant Rx 1.4, P04090
T7 chain: T1 chain with R134V, R136K, A137R

Protein | cleavage of prorelaxin mutant by murine prohormone convertase 2 [1] | cleavage of prorelaxin mutant by murine prohormone convertase 2 [2] | cleavage of prorelaxin mutant by murine prohormone convertase 2 [3] | cleavage of prorelaxin mutant by murine prohormone convertase 2 [4] | cleavage of prorelaxin mutant by murine prohormone convertase 2 [5] | cleavage of prorelaxin by murine prohormone convertase 2 [6] | cleavage of prorelaxin mutant by murine prohormone convertase 2 [7] | processing of prorelaxin mutant by murine prohormone convertase 1 [1] | processing of prorelaxin mutant by murine prohormone convertase 1 [2] | processing of prorelaxin mutant by murine prohormone convertase 1 [3] | processing of prorelaxin mutant by murine prohormone convertase 1 [4] | processing of prorelaxin mutant by murine prohormone convertase 1 [5] | processing of prorelaxin mutant by murine prohormone convertase 1 [7]
B1 | with the exception of 4.3 where there is some processing | does not cleave any of the prorelaxin mutants with the exception of 4.3 | Mutant 7.2 is not cleaved by murine prohormone convertase 2 | does not cleave any of the prorelaxin mutants with the exception of 4.3 | does not cleave any of the prorelaxin mutants with the exception of 4.3 | Murine prohormone convertase 2 does not cleave the wildtype prorelaxin | does not cleave any of the prorelaxin mutants with the exception of 4.3 | – | – | – | – | – | –
B2 | – | – | – | – | – | – | – | Mutant 4.3 doesn't appear to be processed | mutants 7.2 and 8.6 are not processed | mutants 7.2 and 8.6 are not processed | mutant 3.2 is partially processed | Mutants 1.4 and 2.4 are processed the same as wild-type | Mutants 1.4 and 2.4 are processed the same as wild-type
